# Laboratory results as given in patent US20060110801A1 (WISCONSIN ALUMNI RESEARCH FOUNDATION, published 2006).
# Target: GST (UniProt P08515 1-218 = GST)
# Assay: pull-down on glutathione sepharose, Western blot with anti-T7
# GST, sequence (P08515 whole entry): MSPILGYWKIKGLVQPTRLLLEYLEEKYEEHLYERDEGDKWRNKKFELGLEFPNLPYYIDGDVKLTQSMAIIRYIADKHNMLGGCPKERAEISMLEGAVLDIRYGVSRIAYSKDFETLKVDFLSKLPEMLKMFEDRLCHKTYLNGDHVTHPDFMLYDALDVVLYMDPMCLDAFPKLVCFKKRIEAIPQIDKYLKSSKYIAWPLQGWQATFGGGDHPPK
binder,measurement,value
"T7-ATR41-227 (fusion protein having a hexahistidine tag, a T7 tag, and amino acids 41 to 227 of ATR) (receptor, also called the I domain; extracellular fragment of ATR) GGFDLYFILDKSGSVLHHWNEIYYFVEQLAHKFISPQLRMSFIVFSTRGTTLMKLTEDREQIRQGLEELQKVLPGGDTYMHEGFERASEQIYYENRQGYRTASVIIALTDGELHEDLFFYSEREANRSRDLGAIVYCVGVKDFNETQLARIADSKDHVFPVNDGFQALQGIIHSILKKSCIEILAAE",binding result,no binding
